Drawing on a protein production outcome set (Wang et al. 2014), this text covers protein production for 20 sequences.

A short description of this series: label from the status in PepcDB records.

With “MSVAGLKKQFHKASQLFSEKISGAEGTKLDDEFLDMERKIDVTNKVVAEILSKTTEYLQPNPAYRAKLGMLNTVSKIRGQVKTTGYPQTEGLLGDCMLKYGKELGEDSTFGNALIEVGESMKLMAEVKDSLDINVKQTFIDPLQLLQDKDLKEIGHHLKKLEGRRLDYDYKKKRVGKIPDEEVRQAVEKFEESKELAERSMFNFLENDVEQVSQLAVFIEAALDYHRQSTEILQELQSKLQMRISAASSVPRREYKPRPVKRSSSELNGVSTTSVVKTTGSNIPMDQPCCRGLYDFEPENQGELGFKEGDIITLTNQIDENWYEGMIHGESGFFPINYVEVIVPLPQ”, the protein production result is given as “failed”.

For “MSVAILAQEKLGDCVLLTPLVRNLRQAFPDLEIHLITFSRASANFFMNDPQVTAVHLVKKQPRRYFREVLSRKFDLLFNTKDHPSTWFLLQSALIRARFKVGHNNPFHEGLYDRLLDTEFHAHMAVKNCALLPLLGVTADTEACRPSLEHHHHHH”, the protein production result is on record as “not failed”.

As to “MSVELEESQVCEACGCAGEIGFIIKEGDEVADVTIFAETKDALESELAKYIELAKSVCAGVEYNVSELTEESKELTARFKFEVSAEKLIFELKTRSLARLEHHHHHH”, the protein production entry is reported as “not failed”.

Turning to “MSVIATILAYAGLAIVSTVVVWKGSELLESSTEKLSGYYQLPPLVQGSIVLAVGSSFPELSTAVLSAALHGDFELGVAAVVGSALFNILMIPALAGLWAEERLESTRDLIYKETQFYLISIVVLLLMFSFAVIYNPLAGGTDAQVGGVTRGLALLPLALYAVYVYLQYQDTRDHQPEAPPEDIHLPKQGTRLVGSLLIILIGVEGLIRSAVAFGDIFGTPSFLWGITVVAAGTSVPDAFVSIRASRAGNPVTSVANVLGSNIFDLLVCIPAAALVAGTVAINYSVGMPMMGVLSLATLIVLLTMRSEMVLTTPEAWGLIALYLAFVVWMGAETVGTVDLIPHLPPPAHTP”, the protein production entry is reported as “failed”.

As for “MSVISIILVLIIAFLAGLDGILDQFQFHQPLVSCTLIGLASGHTVAGIMLGGTLQFLALGWANIGAAVAPDVALASTAAAVIMIKGGDFSQKGITIAYGVAVPLAIAGLALTMVVRAISIGIVHGADAAAKNGNIRAVERSHYFALLLQGLRIVFPVALLLALPANHVKSILEAIPSWLSDGMTIGGGMVVAVGYAMILNMMATREVWPFFIIGFVLAAIPDTQITLFGLGMIGVALAMIYIALTNQTGRNSSSGQASSSSNDPIGDILEDY”, the protein production entry is “failed”.

“MSVKVSVDDIDGITEVLNVYMNAAESGTGEEMSAAFHKDATIFGYVGDKLAFNGPIKDLYDWHNSNGPAKNVQSRITNIDIVGTVAHARVEAENWTNFKFSDLFLLLKLDGKWTIVNKVFHLHA”: the protein production entry is “not failed”.

As to “MSVLGFDIGNLNCYIGVARQGGIEVITNDYSLHATPACVSFGPKDRSMGVAARQAVTTNIKNTVINFKHLIGRKFSDPVAQRFIPFIPCKVVKLPNDDIGVQVSYLGEPHTFTPEQVLAALLTKLRTIVESQLSDVKKVSDCVLAVPSYFTDVQRRAVLSAIQYAGLNSLRIVNETTAIALAYGIYKQDLPEEDAKSRNVVFLDIGHSSTQASLVAFNRGKLQMVNTSYDLESGGIWFDALIREHFRKEFKTKYGIDAATSPRPWLRLLDECERVKKQMSANQTPIPLNIECFMEDKDVTGKMQRQEFEDLAAPIFNRIKQVLINLFADGVSIKPEEIDEIEIVGGSSRIPMIREIVKDLFGKEPKTTMNQDEAVARGAAMQCAILSPTFRVREFAIKDTQPYRIRLSWNSTGENGGENDVFSPRDEVPFSKLVSLLRSGPFNVEAHYAQPNVVPHNQVHIGSWKVNGARPGADGGNQKVKVKVRVNPDGIFTIASATMYEPRIVEEVPAEAMEVDGDAKTEAPAEPL”, the protein production result is on record as “failed”.

With “MSVLIYVESNGSEIKKSSMDAVAYGTQVASKLGGSAIVVAIGNIPQEQLTALGNFGASKVLHVTGDAFNQNAPLASAAAVVEAAKKAGAKVIVLPKSTLVDSFAPKLASQLKAGVVTNVTELPDTSAGFQVKRSIFTGKAFATVSINTDIKVITLAKNAYQGTETGGTAAVEALSVSLTDADTKVKTTNVEKMSGELLLTEAEIVVSGGRGLKGPENWGVLLDLAKALGAATGCSKPVSDMDWRPHHEHVGQTGVKVAPNLYIAVGISGAIQHLAGVNSSKCIVVINKDPEAPFFKAADYGIVGDLFEVLPKLTEAAKLLK”, the protein production result is “failed”.

Turning to “MSVLKEYRTVSEVVGPLMIVDQVAGVHYNELVDITLHNGERRKGQVLEVQGDKAMVQLFEGSTGINLAKTKVRFTGHPLELAVSEDMVGRIFDGMGQPIDGGPELIPEKYLDIDGQAINPVARDYPDEFIQTGISAIDHLNTLVRGQKLPVFSGSGLPHNELAAQIARQATVLNSDDNFAVVFAAMGITFEEAEFFMNDLRETGAIDRSVLFINLANDPAIERIATPRIALTTAEYLAYEKGMHVLVIMTDMTNYCEALREVSAARREVPGRRGYPGYLYTNLSTLYERAGRLIGKKGSVTQIPILTMPEDDITHPIPDLTGYITEGQIILSQELYKNGFRPPINVLPSLSRLKDKGSGEGKTRQDHAATMNQLFAAYAQGKQAKELAVVLGESALSETDKLYVAFTNRFEEEYINQGFYTNRSIEESLDLGWELLSILPRTELKRIKDDMLDRYLPKADTTMTKVFVAND”, the protein production result was “failed”.

“MSVLVVGGDEITPIKAVLENLGCKDITHWDGRRESINRKNIPQNTECLVLLTNFLNHNTMKKFRGEAKKRNIPVVCSKRSVSCLYCEYCKIFGEAAAKNCPLNSFELEHHHHHH”: the protein production result was “failed”.

With “MSVNDQITHIGKTLSTTASAFLNYQKSNSNTQDVLTNNGPYKNLLSNTVNNASSTSYFYKRTEHGRFVKNASNTFEDIYSKTRRGDVFRNKFTDNKTCFRMLTYISDDLLNEIPTKEGLKSDADGKLLTEGGENENLRKNASKKETSLFQGFKSYLPIAELAIENTERLNYDTNGTSGTVGAKDVMSKTNERDEIHTELPNFQDSFLIPPGVETKKISSSYSPSALKSFSQTLVNSLEFLNIQKNSTLSEIRDIEVEVENLRQKKEKLLGKIANIEQNQLLLEDNLKQIDDRLDFLEEYGLEVIEANSDENAEDDGMSERKALKNDAIRNEGVTTESISSEASNLPPRRRQQLRDDNSLNRLGAFYSKSKKRHRKSFPTFQQLYEPGTKIGSIMSTHDDFLTCLDFDAPFGTLCTAGYLDHTVKIWDLSKQNKIGELAGHLATINCMQINRDYGTLVTGGRDAALKLWNLNLAQQLYQETQNLTSPTNHIDSPCVHTFEAHTDEVTALSLDPSFLVSGSQDRTIRQWDLRSGKCLQTIDLSFANVLTTSTNVDLSKSTLLTQRNERPSIGALQSFDAALATGTKDGVVRLWDLRSGKVIRTLKGHTDAITSLKFDSACLVTGSYDRTVRIWDLRTGLLNKFHAYSAPVLSLDLFQENAAVVVADEPSVQIYDSEKDESWSCVEQGNETSVSTVKYKENYMVEGRENGDVNIWAV”, the protein production result was “failed”.

As for “MSVNESVNRIVGGSGVILAGTFLGMLLDILIKKVMTSHLSPADFGTYSLALTVISITGAVATLGLNEGVPRYIAFFRGRQEEQKVHELIISAILMGLIAGLLAILVSPSLFESLAGKGFDAQGQILSVVKILVFAIPFTILLNLTVAIYRGFDRTNVNMYFYNIIRPLSLLGFASAAVYFGASLKGVVFADLISMVFTFSIMSVYFVKKPPVKPEWKIKFSEPTRQLIRYSFPLLITATLLNLMSWIDTIMLGYFRPAEVVGVYNAVYPIVGFLSLVIASMGYVYVPVASKLWGLNKTQPVGSIYAVMTKWCFLLTFPIFALIFVYPEFLITKLYGAEYVGGTTALRILAMGFIANSYFGFNYHTLLASGDSDFLMRCSVASAGINAVVNFMLIPEYGMIGAAIGTAVSYASIEVSMTLRAWRKQKMHPFTSMYRKLTLVCVVMTATMLAAKIIIPLSGAAWEYAVFIIVYFAVIHYAKILDKDEISMVDEIRKNIRQNVSVHVPQAIKTLVP”, the protein production entry is on record as “failed”.

As for “MSVNLGSLPRQRSLLSRLRDLWPLWLFLALLASALHYIVRYWPQIVLQSAIWQKSLHQQMSHLLQMVEQQPHQAGLSLMMFSLVYGVLHAVGPGHGKVVIMTYLATHPSKLKSSLKLTLAASLVQGLMAIALVTVVLGILQLSSRTLHNSSFWMEKGSFVLVAGLGLLLCFRALKQLYIVLVRQPKPATILRVIPLPVTPLNVAAHGRMTLSPIYAPSHSLHQHDVDCGCGHRHLPSNEELERGSSWHTRLMIVLAMGMRPCSGAIMVLLFSKVIGVYLWGVASALVMAAGTAITISALAVLVFYCRRVIERLGANRASPVWQRATFSLLSFAGGMILVGSGILLYLSAQPAMMGGIRPFSG”, the protein production entry is recorded as “failed”.

For “MSVPDNVYLIGTMNTADRSLAGLDIALRRRFDFVEMAPRPDKLTGVKVAEIDISAVLETMNRRIEVLLDREHRLGHAYFMSLENSNDLSRLSNIFRQQIIPLLQEYFFEDWQRIAWILNDHRKDERFRFIVPAPYSVDSLFGDTGQVAQDSKAWRMNEEAFHKPLEHHHHHH”, the protein production entry is given as “failed”.

Take “MSVSAELSQTIINNQVTSVLILDESLMIRYANPAAEQLFSQSAKRLMHQSLNHLVQHSSLDLQLLTQPLQSGQSITDSDVTLVIDSKPLMLEVTVSPISWHKELLLLAEMRTIG”: the protein production result is recorded as “failed”.

For the sequence “MSVSGPCLSCDTPGCTMQAHSDSDESFFERAWAVVAQIPVGRVTTYGDIAAHLGRRGAARIVGWALKDAVGGDLPCHRVVNRNGVLTGRRHFETPHVMAERLRSEGVTFVAEDQVDLDAHRWRPGEAE”, the protein production entry was “failed”.

Take “MSVSVKGNEQLTSLLNDWYRAMLSQQVIKATNLKKKIDEKINKLSIEPDQEHQDQNLLLYYSLLEFRYKVLTDSLGIQQNSFDTISDYDMPTDQFLQFYYHFFKSIHSTFISNYTEAEEHYKLAEKILVAIPDEIEHAEFYYRIATFYHHTYNNLASIEYANKSRAIFSKYEGYEVKTAFCNSLLGGCCIYLKQYEQAEEYLHCAIDLLQKNREEDSLLYVKNTMGWLYSDQSMSTLAIRHLSEVTEKIPTHFKAIFLQAKEHYKLGEQSTASQLIDKGLQICREIHNEEYTHHFSILKKLNENIPLEELEKIIQEGILYFEEEELWEYVVEYAELFATKCRQLENHQKVSDYFHICYQARQKSIAKGVLK”: the protein production result was “failed”.

On to “MSVYKLTDLRDNSTNWKINVKILSIWNHPPNSHGEIMTMILHDDKNNRVDATIPQGNYHNPFRPFLKPGTWIHISDFRVIVPQSRVRYSSFCFHIKFIWETSVYPLPELVKRDFFDFIFPIDLKYPCLEDWDYVTDAMSEVTNISAIKKFPFVCRQGETDYESRYVSFELLDNMGEKMKCYAVGRCCELFVINFSKCISSASYNYQPIVAIVRFWRIAEIEGENVLKSEFGCSRIYLNPTNFPEIDIQSYIRGFEDYDELPENPRMEVIEEN”, for which the protein production entry was “failed”.

For the sequence “MSWACRPATAQRQAGRNGGAPTVQSRVPRRASPRTHHPFVRLVATTLRPVRPYSDLLQHRLLHPMHRFVIVGLGNFGASVAEALYSHGHDVIAVDVDEQAVDDIAPHCSRAAVGDGREAATLEEIGAEAADAAVVSTGDDITASILATMALQDLGVDVVYVKVISDNHARIMRQLGATEAVFPERDSAFNLASRISEKGVVNYVRMGRNLSVQELVVPEEWRGHTLRELDVRAEYGVSVVGIHETTIDDMIVPPNPDDTLRHTDTLILAGTDEAIEKVADLASATAEEAE”, the protein production result is “failed”.

Regarding “MSWENPGPPKRADARRNYDRIIEAAAAEVARHGADASLEEIARRAGVGSATLHRHFPSRWGLLQAVFQERVAQLCDEARSLAAEHPPATALTRWLTSLAVFGAVTRGAARSLLPATGTNTGAALDSRCEQLLTEAGADLLARAQEDGTVRDDVTALELLSLANAVSLAAEHTPDAAHHATRLMGIALGGLGAPGPRPQG”, the protein production entry was “not failed”.
